Laboratory results: patent publication US8975044B2, “Polynucleotides encoding for frizzled-binding agents and uses thereof” (OncoMed Pharmaceuticals, Inc., priority 2008, dated 2015)

B1: 44R24: anti-FZD5/8 IgG antibody, VH SEQ ID NO:85, VL SEQ ID NO:86; ATCC deposit no. PTA-10311 (antibody, V domains shown)
VH: EVQLVESGGGLVQPGGSLRLSCAASGFTFSSYYITWVRQAPGKGLEWVSTISYSSSNTYYADSVKGRFTISRDNSKNTLYLQMNSLRAEDTAVYYCARSIVFDYWGQGTLVTVSS
VL: DIELTQPPSVSVAPGQTARISCSGDALGNRYVYWYQQKPGQAPVLVIPSGIPERFSGSNSGNTATLTISGTQAEDEADYYCGSWDTRPYPKYVFGGGTKLTVLG
modifications: 44R24 VH; 44R24 VL
notes: ATCC deposit no; PTA-10311
B2: 18R5: human anti-FZD antibody; VH SEQ ID NO:10 (as 18R8), VL SEQ ID NO:14; binds FZD1, 2, 5, 7, 8 (antibody, V domains shown)
VH: EVQLVESGGGLVQPGGSLRLSCAASGFTFSHYTLSWVRQAPGKGLEWVSVISGDGSYTYYADSVKGRFTISSDNSKNTLYLQMNSLRAEDTAVYYCARNFIKYVFANWGQGTLVTVSS
VL: DIELTQPPSVSVAPGQTARISCSGDNIGSFYVHWYQQKPGQAPVLVIYDKSNRPSGIPERFSGSNSGNTATLTISGTQAEDEADYYCQSYANTLSLVFGGGTKLTVLG
modifications: 18R5/18R8 heavy chain variable region (VH); 18R5 light chain variable region (VL)
B3: 18R8: human anti-FZD antibody from phage display; VH SEQ ID NO:10, VL SEQ ID NO:12; binds FZD1, 2, 5, 7, 8 (antibody, V domains shown)
VH: B2 VH
VL: DIELTQPPSVSVAPGQTARISCSGDKLGKKYASWYQQKPGQAPVLVIYEKDNRPSGIPERFSGSNSGNTATLTISGTQAEDEADYYCSSFAGNSLEVFGGGTKLTVLG
modifications: 18R5/18R8 heavy chain variable region (VH); 18R8 light chain variable region (VL)

Tests used:
FZD8 [1] = biological target: T1, FZD8 (Homo sapiens, UniProt Q9H461); experiment: FACS binding to FZD-transfected HEK293 cells; details: for EC50: FACS MFI dose-response, full-length FZD in HEK293, 20 μg/ml 4-fold dilutions; for binding to cell-surface FZD8 by flow cytometry (in words): transfected HEK293 cells
T1 construct: plasmid DNA expressing full-length FZD1, 2, 5, 7 or 8; expressed in transfected cells; host or cells: HEK293
Procedure: (§1) To measure antibody binding to FZD by flow cytometry HEK293 cells were co-transfected with FZD expression vectors and the transfection marker GFP. Twenty-four to forty-eight hours post-transfection, cells were collected in suspension and incubated on ice with anti-FZD antibodies (10 μg/ml unless otherwise indicated) or control IgG to detect background antibody binding. The cells were washed and primary antibodies detected with Fc domain-specific secondary antibodies conjugated to a fluorescent chromophore (e.g. phycoerythrin conjugated anti-human IgG). Labeled cells were then analyzed by flow cytometry to identify anti-FZD antibodies that specifically recognize cell surface expression of FZD protein. Monoclonal antibodies 18R5 and 18R8 recognized FZD on transfected cells. As shown in FIG. 1 and FIG. 2, both 18R8 and 18R5 bind to multiple FZD including FZD1, FZD2, FZD5, FZD7, and FZD8. To examine the relative ability of 18R8 and 18R5 to bind to each FZD protein, titration analysis was conducted wherein the amount of antibody in the binding reaction was varied (FIG. 2).
(§2) HEK293 cells were co-transfected with a plasmid DNA expressing full-length FZD1, 2, 5, 7 or 8 along with another plasmid expressing the reporter gene GFP used as a transfection marker. Fugene 6 (Roche) was used as transfection reagent according to the manufacturer directions. Transfected cells were incubated twenty-four to forty-eight hours at 37° C. and 5% CO2. The anti-FZD mAbs were then diluted in a final volume of 50 μl starting with a concentration of 20 μg/ml and serially diluted 4-fold for a total of 8 dilutions. Each FZD/GFP 293 transiently tranfectant pool was collected in suspension and 100,000 transfected cells were incubated on ice 30-60 minutes with the diluted anti-FZD mAb to be tested. The cells were washed and bound anti-Fzd antibodies were detected with a secondary anti-human antibody conjugated to a fluorescent chromophore. Labeled cells were then detected and counted by FACS. The FACS data generated were expressed in Mean Fluorescence Intensity (MFI) units. GraphPad Prism software was used to graph and analyze the data. MFIs were plotted as a function of Ab concentration to establish dose-response curves. A non-linear regression was applied to the numbers to fit the curve and calculate EC50s.
T1 sequence (Q9H461 28-694): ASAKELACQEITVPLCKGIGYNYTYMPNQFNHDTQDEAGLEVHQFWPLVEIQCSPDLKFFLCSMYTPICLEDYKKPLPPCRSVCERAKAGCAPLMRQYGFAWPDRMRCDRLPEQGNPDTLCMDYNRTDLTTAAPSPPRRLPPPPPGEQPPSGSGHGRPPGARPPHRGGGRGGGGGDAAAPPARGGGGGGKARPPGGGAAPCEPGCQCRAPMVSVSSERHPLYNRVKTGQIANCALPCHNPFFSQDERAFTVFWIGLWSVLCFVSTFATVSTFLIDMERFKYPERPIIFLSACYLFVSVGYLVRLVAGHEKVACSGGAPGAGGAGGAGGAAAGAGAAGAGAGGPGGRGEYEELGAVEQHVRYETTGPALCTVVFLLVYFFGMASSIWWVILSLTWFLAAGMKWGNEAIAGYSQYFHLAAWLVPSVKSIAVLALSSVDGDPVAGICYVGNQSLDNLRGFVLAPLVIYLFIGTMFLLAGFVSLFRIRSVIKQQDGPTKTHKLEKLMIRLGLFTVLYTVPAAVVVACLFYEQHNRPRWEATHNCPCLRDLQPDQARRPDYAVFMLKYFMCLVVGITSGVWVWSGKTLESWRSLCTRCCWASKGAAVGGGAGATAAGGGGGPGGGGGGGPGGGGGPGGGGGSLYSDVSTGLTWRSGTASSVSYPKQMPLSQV

FZD7 = biological target: T2, FZD7 (Homo sapiens, UniProt O75084); experiment: FACS binding to FZD-transfected HEK293 cells; details: transfected HEK293 cells
T2 construct: plasmid DNA expressing full-length FZD1, 2, 5, 7 or 8; expressed in transfected cells; host or cells: HEK293
Procedure: as §1, §2

FZD5 = biological target: T3, FZD5 (Homo sapiens, UniProt Q13467); experiment: FACS binding to FZD-transfected HEK293 cells; details: for EC50: FACS MFI dose-response, full-length FZD in HEK293, 20 μg/ml 4-fold dilutions; for binding to cell-surface FZD5 by flow cytometry (in words): transfected HEK293 cells
T3 construct: plasmid DNA expressing full-length FZD1, 2, 5, 7 or 8; expressed in transfected cells; host or cells: HEK293
Procedure: as §1, §2

FZD2 = biological target: T4, FZD2 (Homo sapiens, UniProt Q14332); experiment: FACS binding to FZD-transfected HEK293 cells; details: for binding to cell-surface FZD2 by flow cytometry (in words): transfected HEK293 cells
T4 construct: plasmid DNA expressing full-length FZD1, 2, 5, 7 or 8; expressed in transfected cells; host or cells: HEK293
Procedure: as §1, §2

FZD1 = biological target: T5, FZD1 (Homo sapiens, UniProt Q9UP38); experiment: FACS binding to FZD-transfected HEK293 cells; details: transfected HEK293 cells
T5 construct: plasmid DNA expressing full-length FZD1, 2, 5, 7 or 8; expressed in transfected cells; host or cells: HEK293
Procedure: as §1, §2

C28 tumor cells = experiment: C28 colon tumor growth study; format: in vivo, Nod-Scid mice; details: 15 mg/kg intraperitoneally twice per week
Procedure: C28 tumor cells were injected sub-cutaneously in Nod-Scid mice. Tumors were allowed to grow until they had reached an average volume of 126 mm^3. Tumor bearing animals were groups were randomized into four groups (n=10 mice per group) and treated with either Control Ab (black squares), 18R8 (gray triangles), 44R24 (black open circles), or 18R5 (gray circles) (FIG. 58). Antibodies were dosed intraperitoneally at 15 mg/kg, twice per week. Tumor volumes are indicated.

FZD8 [2] = biological target: T6, FZD8 (Homo sapiens, UniProt Q9H461, F127V/G126N); experiment: Epitope mapping by FACS on FZD8 Fri domain variants on HEK293 cells; format: binding; details: amino acids 126-127 mutated from FG to NV
T6 construct: N-terminus of the Fri domain of FZD8 in turn fused to the transmembrane domain and intracellular domain of CD4 protein; expressed in transfected cells; host or cells: HEK293
T6 sequence (Q9H461 28-158 G126N/F127V): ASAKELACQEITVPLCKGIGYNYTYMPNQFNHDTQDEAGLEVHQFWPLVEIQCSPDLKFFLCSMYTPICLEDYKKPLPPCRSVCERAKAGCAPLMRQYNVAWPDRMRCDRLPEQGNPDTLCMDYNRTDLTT
Procedure: To identify the FZD epitope recognized by the 18R8 IgG antibody, epitope mapping was performed. Flow cytometry analysis of cell surface expressed FZD was utilized to measure antibody binding. Mammalian expression plasmid vectors comprising a CMV promoter upstream of polynucleotides that encode an N-terminal signal sequence FLAG epitope tag fused to the N-terminus of the Fri domain of FZD8 in turn fused to the transmembrane domain and intracellular domain of CD4 protein were generated by standard recombinant technology. This expression construct allows expression of the FZD8 Fri domain on the cell surface, as well as expression of a FLAG epitope tag to monitor expression. Site-direct mutagenesis was then used to modify selected amino acids within the extracellular domain of FZD. HEK293 cells were co-transfected with expression vectors encoding the FZD and the transfection marker GFP. Forty-eight hours post-transfection, cells were collected in suspension and incubated on ice with anti-FZD antibody or control IgG to detect background antibody binding. The cells were washed and primary antibodies detected with anti-antibody secondary antibodies conjugated to a fluorescent chromophore. Labeled cells were then analyzed by flow cytometry to measure the binding of anti-FZD antibody to cell surface FZD.
Epitope mapping for the anti-FZD antibody 44R24 was performed in a manner similar to that described above in Example 5 for the antibodies 18R8 and 18R5. The ability of 44R24 to bind to a similar epitope as 18R8 was assessed by flow cytometry using a series of amino acid variants of FZD8 previously shown to disrupt binding of 18R8 (see Example 5 and FIGS. 6 and 7).

FZD8 [3] = biological target: T7, FZD8 (Homo sapiens, UniProt Q9H461); experiment: Biacore affinity to recombinant Fzd Fc protein; format: binding; details: IgG antibody; Fzd Fc immobilized on CM5 Biacore chip
T7 construct: Fc
T7 sequence (Q9H461 28-157 limits assumed): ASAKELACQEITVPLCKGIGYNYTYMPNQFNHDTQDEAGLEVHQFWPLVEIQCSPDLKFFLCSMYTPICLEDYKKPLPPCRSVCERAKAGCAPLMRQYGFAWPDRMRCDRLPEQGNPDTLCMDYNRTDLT
Procedure: The KDs of 18R8 and 18R5 antibodies were determined using the Biacore 2000 system from Biacore Lifescience (GE Healthcare). Specifically, purified anti-Fzd7 antibodies were serially diluted in 2-fold increments from 100 to 0.78 nM in HBS-P (0.01 M HEPES pH 7.4, 0.15 M NaCl, 0.005% v/v Surfactant P20). Each dilution was tested against recombinant Fzd Fc proteins immobilized onto a CM5 Biacore chip. The association and dissociation rates were measured and KD values determined using the Biaevaluation software program (Table 5, below).

T4 sequence (Q14332 24-565): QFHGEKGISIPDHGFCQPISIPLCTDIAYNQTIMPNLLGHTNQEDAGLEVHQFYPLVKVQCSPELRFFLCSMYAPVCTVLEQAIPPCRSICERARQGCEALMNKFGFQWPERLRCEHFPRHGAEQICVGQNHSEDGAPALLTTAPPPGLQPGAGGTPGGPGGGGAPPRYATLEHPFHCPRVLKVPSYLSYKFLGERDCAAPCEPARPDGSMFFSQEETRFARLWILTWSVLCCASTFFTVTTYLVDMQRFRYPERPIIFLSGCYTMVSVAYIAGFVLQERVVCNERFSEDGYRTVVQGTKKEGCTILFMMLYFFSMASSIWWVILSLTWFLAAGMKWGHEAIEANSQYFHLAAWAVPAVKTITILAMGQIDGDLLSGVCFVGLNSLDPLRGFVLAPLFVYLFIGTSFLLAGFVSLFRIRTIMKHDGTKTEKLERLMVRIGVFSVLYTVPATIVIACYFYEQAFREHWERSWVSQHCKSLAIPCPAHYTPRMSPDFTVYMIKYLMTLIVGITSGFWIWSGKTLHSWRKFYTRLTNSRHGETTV
T3 sequence (Q13467 27-585): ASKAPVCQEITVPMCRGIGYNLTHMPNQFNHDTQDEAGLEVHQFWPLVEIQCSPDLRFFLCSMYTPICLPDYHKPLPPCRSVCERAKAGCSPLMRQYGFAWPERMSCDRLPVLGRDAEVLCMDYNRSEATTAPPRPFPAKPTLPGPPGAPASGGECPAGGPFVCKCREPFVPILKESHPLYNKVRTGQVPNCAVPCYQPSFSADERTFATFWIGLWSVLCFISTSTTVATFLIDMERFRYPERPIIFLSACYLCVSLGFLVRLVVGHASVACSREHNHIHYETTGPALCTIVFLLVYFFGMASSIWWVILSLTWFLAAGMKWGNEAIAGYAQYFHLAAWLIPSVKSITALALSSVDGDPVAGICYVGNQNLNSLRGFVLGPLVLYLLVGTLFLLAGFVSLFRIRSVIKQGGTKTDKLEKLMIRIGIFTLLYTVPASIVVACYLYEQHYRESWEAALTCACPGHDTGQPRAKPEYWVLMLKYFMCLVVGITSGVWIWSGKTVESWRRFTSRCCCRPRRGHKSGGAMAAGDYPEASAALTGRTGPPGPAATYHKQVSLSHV
T5 sequence (Q9UP38 70-647): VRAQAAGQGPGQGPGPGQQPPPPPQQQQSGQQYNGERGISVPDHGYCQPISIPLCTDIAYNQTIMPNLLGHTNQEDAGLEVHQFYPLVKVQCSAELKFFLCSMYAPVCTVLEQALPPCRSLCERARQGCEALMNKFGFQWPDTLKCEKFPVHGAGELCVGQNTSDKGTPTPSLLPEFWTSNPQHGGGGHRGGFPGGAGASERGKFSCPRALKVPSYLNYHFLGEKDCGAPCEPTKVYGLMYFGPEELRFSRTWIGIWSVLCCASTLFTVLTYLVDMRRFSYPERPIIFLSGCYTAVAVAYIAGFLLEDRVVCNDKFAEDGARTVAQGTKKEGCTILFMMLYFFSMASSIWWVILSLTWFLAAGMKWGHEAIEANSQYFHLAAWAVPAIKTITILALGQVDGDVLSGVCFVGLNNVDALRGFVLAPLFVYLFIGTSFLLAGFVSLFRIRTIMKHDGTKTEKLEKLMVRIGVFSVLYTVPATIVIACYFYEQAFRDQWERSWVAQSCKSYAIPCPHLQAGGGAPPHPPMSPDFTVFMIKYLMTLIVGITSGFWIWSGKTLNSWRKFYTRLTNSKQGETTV

Molecule	EC50 (FZD8 [1])	binding to cell-surface FZD8 by flow cytometry (in words) (FZD8 [1])	binding to cell-surface FZD7 by flow cytometry (in words) (FZD7)	EC50 (FZD5)	binding to cell-surface FZD5 by flow cytometry (in words) (FZD5)	EC50 (nM) Fzd2 (FZD2; FACS MFI dose-response, full-length FZD in HEK293, 20 μg/ml 4-fold dilutions)	binding to cell-surface FZD2 by flow cytometry (in words) (FZD2)	binding to cell-surface FZD1 by flow cytometry (in words) (FZD1)	tumor growth relative to the control group (C28 tumor cells)	binding to FZD8 variant (FZD8 [2])	Kd (FZD8 [3])
B1	1.09 nM	good affinity	does not bind	1.89 nM	good affinity	no binding	does not bind	does not bind	reduced growth relative to the control group	reduced staining	–
B2	12 nM	greater binding potency and bind	bind and greater binding potency and High affinity binding	1.1 nM	bind and greater binding potency and High affinity binding	–	bind and greater binding potency and High affinity binding	bind and greater binding potency and High affinity binding	reduced growth relative to the control group	reduced staining	5.8 nM
B3	–	bind	bind	–	bind	–	bind	bind	had no effect	similarly lost	29.3 nM
